B1: Focal adhesion kinase 1 (Gallus gallus (Chicken)), Q00944 (parent)
chain: MAAAYLDPNLNHTPSSSAKTHLGTGMERSPGAMERVLKVFHYFENSSEPTTWASIIRHGDATDVRGIIQKIVDCHKVKNVACYGLRLSHLQSEEVHWLHLDMGVSNVREKFELAHPPEEWKYELRIRYLPKGFLNQFTEDKPTLNFFYQQVKNDYMLEIADQVDQEIALKLGCLEIRRSYGEMRGNALEKKSNYEVLEKDVGLRRFFPKSLLDSVKAKTLRKLIQQTFRQFANLNREESILKFFEILSPVYRFDKECFKCALGSSWIISVELAIGPEEGISYLTDKGANPTHLADFNQVQTIQYSNSEDKDRKGMLQLKIAGAPEPLTVTAPSLTIAENMADLIDGYCRLVNGATQSFIIRPQKEGERALPSIPKLANNEKQGVRSHTVSVSETDDYAEIIDEEDTYTMPSTRDYEIQRERIELGRCIGEGQFGDVHQGIYMSPENPAMAVAIKTCKNCTSDSVREKFLQEALTMRQFDHPHIVKLIGVITENPVWIIMELCTLGELRSFLQVRKFSLDLASLILYAYQLSTALAYLESKRFVHRDIAARNVLVSATDCVKLGDFGLSRYMEDSTYYKASKGKLPIKWMAPESINFRRFTSASDVWMFGVCMWEILMHGVKPFQGVKNNDVIGRIENGERLPMPPNCPPTLYSLMTKCWAYDPSRRPRFTELKAQLSTILEEEKLQQEERMRMESRRQVTVSWDSGGSDEAPPKPSRPGYPSPRSSEGFYPSPQHMVQPNHYQVSGYSGSHGIPAMAGSIYPGQASLLDQTDSWNHRPQEVSAWQPNMEDSGTLDVRGMGQVLPTHLMEERLIRQQQEMEEDQRWLEKEERFLVMKPDVRLSRGSIEREDGGLQGPAGNQHIYQPVGKPDHAAPPKKPPRPGAPHLGSLASLNSPVDSYNEGVKIKPQEISPPPTANLDRSNDKVYENVTGLVKAVIEMSSKIQPAPPEEYVPMVKEVGLALRTLLATVDESLPVLPASTHREIEMAQKLLNSDLAELINKMKLAQQYVMTSLQQEYKKQMLTAAHALAVDAKNLLDVIDQARLKMISQSRPH

Variants of: B1
Details: with src_chick SRC

Variant | effect of a mutation on the interaction
Y576F;Y577F | decreasing interaction
K454R | decreasing interaction
Y397F | disrupting interaction
Y397F;K454R | disrupting interaction

Source: IntAct's records for PubMed 10512882
